In patent publication US12312397B2, “Anti-O2 antibodies and uses thereof” (priority 2016, dated 2025):

B1: KPL36: Class II anti-O2 antigen human mAb; VH SEQ ID NO: 189, VL SEQ ID NO: 192 (antibody, V domains shown)
VH: EVQLVESGGGVVQSGGSLRLSCETSGFTFISSWMSWVRQAPGTGLEWVATINPDGTETPYADSLKGRFTISRDNTKKSLYLQIHSLRADDTAVYFCARNKAYNAHDFWGQGTLVMVSS
VL: QSALTQPPSASGSPGQSVTISCTGTSSDVGGNNFVSWYQQYPGKAPKLIIYEVNKRPSGVPDRFSGSKSGNTASLTVSGLQAEDEADYYCGAFGGSKMFGGGTKLTVL
modifications: Description of Artificial Sequence: SyntheticKPL36 VH polypeptide; Description of Artificial Sequence: SyntheticKPL36 VL polypeptide
B2: KPS44: Class III anti-O2 antigen human mAb; VH SEQ ID NO: 116, VL SEQ ID NO: 117 (antibody, V domains shown)
VH: EVHLVESGGGLVKPGGSLRLSCAASGFTFKNAWMSWIRQAPGKGLEWVGRVKSEVDGGTIDYGVPVRGRFTISRDDSQGTLSLEMNSLKDDDTGVYYCRAFWSGFPTGYWGQGALVSVSS
VL: QSVLTQPPSLSAAPGQTITIACSGTSSNIGSDSVSWFQQFPGTAPRVLIYENNKRPSGISDRFSGSKSGTSVTLGITGLQTGDEADYYCATWDSSLSAYVFGSGTKVTVL
modifications: Description of Artificial Sequence: SyntheticKPS44/KPS44-G1 VH polypeptide; Description of Artificial Sequence: SyntheticKPS44 VL polypeptide
B3: KPS44v2017: sequence-optimized KPS44, Class III; VH SEQ ID NO: 202, VL SEQ ID NO: 203 (antibody, V domains shown)
VH: EVHLVESGGGLVKPGGSLRLSCAASGFTFKNAWMSWIRQAPGKGLEWVGRVKSEVDGGTIDYGVPVRGRFTISRDDSQGTLSLEMNSLKDDDTGVYYCRAFFSGFPTGYWGQGALVSVSS
VL: QSVLTQPPSLSAAPGQTITIACSGTSSNIGSNYVSWFQQFPGTAPRVLIYENNKRPSGISDRFSGSKSGTSVTLGITGLQTGDEADYYCATFDSSLSAYVFGSGTKVTVL
modifications: Description of Artificial Sequence: SyntheticKPS44-v2017/KPS44-G2/KPS44-G3 VH polypeptide; Description of Artificial Sequence: SyntheticKPS44-v2017/KPS44-G1 VL polypeptide

Columns and labels:
[1] = test system: O1 LPS; test: ELISA binding to O1 LPS; design: species or system Klebsiella pneumoniae; conditions: secondary screening
Method: (§1) The coated plates were incubated with cell culture supernatants from polyclonally stimulated lymphocytes (AMVBRA) or from monoclonal immortalized B cells (donor interrogations) containing fully human antibodies or with diluted plasma samples (PBMC donor selections) for 1 hour at room temperature. The plates were then washed with PBS containing 0.1% Tween-20 (PBS-T). Secondary antibody was added; either Alkaline Phosphatase-conjugated Goat Anti-Human IgG-AP (Southern Biotech, 2040-04, 1:1000 in PBS-B) or Peroxidase AffiniPure F(ab′)2 Fragment Goat Anti-Human IgG, Fc Fragment Specific (Jackson ImmunoResearch #309 036 098, 1:5000 in PBS-B) were used. Secondary antibodies were typically incubated for 1 h. Plates were washed three times with PBS-T, and P-NitroPhenyl Phosphate (pNPP, Sigma-Aldrich, cat #N2765-100TAB) or Sureblue (KPL, 53-00-03) substrates were added and incubated for 10 min or until the development of a colorimetric reaction. In the case of the HRP substrate Sureblue, the reaction was stopped by adding an equal volume of 0.2N HCl. The absorbance at 405 nm (pNPP) or 450 nm (Sureblue) was measured by a microplate reader (Biotek, Elx808).
(§2) The coated plates were incubated with serial dilutions of the monoclonal antibodies for 1 hour at room temperature. The plates were then washed with PBS containing 0.1% Tween-20 (PBS-T). Alkaline Phosphatase-conjugated Goat Anti-Human IgG (Southern Biotech, 2040-04, 1:1000 in PBS-B) was added. The secondary antibody reactions were incubated for 1 h. Plates were washed three times with PBS-T, and P-NitroPhenyl Phosphate (pNPP, Sigma-Aldrich, cat #N2765-100TAB) substrate was added and incubated for 30 min or until the development of a colorimetric reaction. The absorbance at 405 nm was measured by a microplate reader (Biotek, Elx808). The data was plotted with Graphpad Prism software. Representative mAbs from each class were tested for their binding to O1 LPS (FIG. 2A) and O2 LPS (FIG. 2B), and EC50 values were obtained (FIG. 2C). The majority of the anti-O2 LPS mAbs bound to both O1 and O2 LPS by ELISA. […] None of these LPS mAbs bound to the 03, 04, 05, 07, or 012 LPS serotypes (see e.g., FIG. 1A).

[2] = test system: K. pneumoniae 43816ΔcpsBLux (O1); test: Opsonophagocytic killing (OPK) assay, O1 capsule mutant; type: cell-based, Klebsiella pneumoniae; design: key to D Capsule OPK O1: +++: Strongly positive activity; +: Positive activity; +/−: Somewhat positive depending upon the test conditions; conditions: capsule mutant strain 43816ΔcpsB lux (O1)
Method: (§3) OPK activity of anti-O2 LPS mAbs was tested against O1 and O2 strains. Briefly, log phase cultures of luminescent K. pneumoniae strains 8570ΔcpsBLux (O2) and 43816ΔcpsBLux (O1) were diluted to ˜2×10^6 cells/ml. K. pneumoniae cells, 5e5/well dimethylformamide (DMF) differentiated HL-60 cells, cleared baby rabbit serum (1:10 Cedarlane), and a series dilution of antibodies (2 ng-2.5 μg/mL) were mixed in 96-well plates and incubated at 37° C. for two hours with shaking (250 rpm). The relative light units (RLUs) were then measured using a multi-mode microplate reader (Synergy 2, Biotek or envision multilabel plate reader, Perkin Elmer). The percentage of killing was determined by comparing RLU derived from assays with no antibodies to RLU derived from assays with anti-K. pneumoniae mAbs and assays performed with a negative control mAb. Positive killing was determined where the percentage of killing is above 40%.

[3] = test system: O1 LPS activation of NF-κB in RAW264.7-lux cells; test: LPS neutralization assay (NF-κB luciferase, RAW264.7-lux), O1 LPS; type: cell-based, murine; conditions: human IgG1 format
Method: (§4) Activation of TLR4 receptors by bacterial LPS leads to downstream activation of the NF-κB transcriptional regulator. A decrease in induction of NF-κB-responsive luciferase activity was used to quantify LPS neutralization activity by LPS mAbs. A murine RAW264.7 macrophage cell line was engineered to carry a firefly luciferase reporter gene under the control of an NF-κB-responsive promoter (RAW264.7-lux). Serially diluted antibody stocks were mixed with LPS in a 1:1 ratio and incubated at 4° C. for 1 hr. Antibody/LPS mixtures were then diluted 1:10 into assay plates containing pre-seeded RAW264.7-lux cells (4e5 cells/well), which were then placed at 37° C. with 5% CO2 for 2.5 hours. Following incubations, Steady Glo solution (Promega) was added to each well and incubated for another 20 min protected from light. The relative light units (RLUs) were measured using a multi-mode microplate reader (Synergy 2, Biotek or envision multilabel plate reader, Perkin Elmer). The percentage of inhibition was determined by comparing RLU derived from assays with no antibodies to RLU derived from assays with anti-K. pneumoniae mAbs and assays performed with a negative control mAb. […] All mAbs were tested in human IgG1 format.

[4] = test system: K. pneumoniae 8570ΔcpsBLux (O2); test: Opsonophagocytic killing (OPK) assay, O2 capsule mutant; type: cell-based, Klebsiella pneumoniae; design: key to D Capsule OPK O2: +++: Strongly positive activity; +: Positive activity; +/−: Somewhat positive depending upon the test conditions; conditions: for D Capsule OPK O2: capsule mutant strain 8570ΔcpsB lux (O2)
Method: as §3

[5] = test system: O2 LPS; test: ELISA binding to O2 LPS; design: species or system Klebsiella pneumoniae; conditions: secondary screening, ELISA
Method: as §1, §2

[6] = test system: O2 LPS activation of NF-κB in RAW264.7-lux cells; test: LPS neutralization assay (NF-κB luciferase, RAW264.7-lux), O2 LPS; type: cell-based, murine; design: key to LPS Neut O2: +++: Strongly positive activity; +: Positive activity; +/−: Somewhat positive depending upon the test conditions; conditions: for LPS Neut O2: Table 7 summary; for neutralizing activity against O2 LPS (NF-κB activation): human IgG1 format
Method: as §4

[7] = test system: K. pneumoniae O2; test: Mouse protection models (O2), Table 7 summary; type: in vivo, Klebsiella pneumoniae; design: key: +++: Strongly positive activity; +: Positive activity; +/−: Somewhat positive depending upon the test conditions; conditions: mouse pneumonia models
Method: As described in more detail in below, anti-O2 LPS mAbs were tested for: 1) binding to O1 and O2 LPS (see Example 5); 2) LPS neutralization (LPS-Neut) against O1 and O2 LPS (see Example 7); 3) OPK against capsule mutant strain 43816ΔcpsB lux (O1) and 8570ΔcpsB lux (O2) (see Example 8); and 4) protective activity in pneumonia models (see Example 9). O2 LPS mAbs were subsequently divided into three classes based on their in vitro activities. Class I mAbs were characterized as Binding (O1+O2+)/OPK (O1−O2+); Class 2 mAbs were characterized as Binding (O1+O2+)/OPK (O1+O2+); and Class III mAbs were characterized as Binding (O1±O2+)/OPK (O1−O2+).
(§5) C57/BL6 mice were obtained from Jackson Laboratories and maintained in a special pathogen-free facility. All animal experiments were conducted in accordance with Institutional Animal Care and Use Committee (IACUC) protocol and guidance. K. pneumoniae strains were grown on agar plates overnight and diluted in saline at proper concentration. The inoculum titer was determined by plating a serial dilution of bacteria onto agar plates prior to and post challenge. In acute pneumonia models, C57/BL6 mice were inoculated with 1e4 to 2e8 colony-forming units (CFU) of K. pneumoniae clinical isolates in 50 μl saline intranasally. Anti-K pneumoniae monoclonal antibodies (mAbs) and human IgG1 control antibodies were given 1-24 hour post bacterial challenge (therapeutic dosing). Mouse survival was monitored daily until up to day 8. Survival data of representative experiments were plotted in Graphpad Prism software.
(§6) Mice were challenged with 2e8 CFU of Klebsiella pneumoniae Carbanpenemase (KPC) strain Kp961842_O2 or with 3e8 CFU of KPC strain Kp977778_O2, followed by the administration of anti-O2 mAbs. When administered at a concentration of 2 mg/kg 1 hour post bacterial infection, Class III anti-O2 LPS mAbs KPN42, KPN179-IgG1, and KPS44v2017 protected mice from lethal bacterial challenge with the multi-drug resistant KPC strains Kp961842_O2 (FIG. 6, left panel, and FIG. 10) and Kp977778_O2 (FIG. 6B, right panel).

[8] = test system: KPC strain Kp961842_O2; test: Lethal pneumonia model, KPC strain Kp961842_O2; type: in vivo, Klebsiella pneumoniae; conditions: C57/BL6 mice, 2e8 CFU; mAb 2 mg/kg 1 hour post infection; survival
Method: as §5, §6

[9] = test system: KPC strain Kp977778_O2; test: Lethal pneumonia model, KPC strain Kp977778_O2; type: in vivo, Klebsiella pneumoniae; conditions: C57/BL6 mice, 3e8 CFU; mAb 2 mg/kg 1 hour post infection; survival
Method: as §5, §6

Molecule | binding to LPS-O1 [1] | D Capsule OPK O1 [2] | neutralizing activity against O1 LPS (NF-κB activation) [3] | D Capsule OPK O2 [4] | binding to LPS-O2 [5] | LPS Neut O2 [6] | neutralizing activity against O2 LPS (NF-κB activation) [6] | neutralization of LPS-O2 ([6]; secondary screening) | Mouse protection models (O2) [7] | OPK activity against O2 capsule mutant ([4]; secondary screening) | protection from lethal bacterial challenge, Kp961842_O2 [8] | protection from lethal bacterial challenge, Kp977778_O2 [9]
B1 | confirmed to bind | + | no activity | + | confirmed to bind | + | moderate neutralizing activity | neutralize |  |  |  | 
B2 |  |  | no activity | +++ |  | +/− | moderate neutralizing activity |  | +++ | strong OPK activity |  | 
B3 |  |  |  | +++ |  | +/− |  |  | +++ |  | protected | protected
